B1: HDV Ribozyme (parent)
chain: GGCCGGCAUGGUCCCAGCCUCCUCGCUGGCGCCGGCUGGGCAACAUUCCGAGGGGACCGUCCCCUCGGUAAUGGCGAAUGGGACCCA

Variants of: B1
Assay: self-cleavage, relative activity (ratio to wild type); higher = more cleavage; co-transcriptional

| Variant | self-cleavage |
| --- | --- |
| GGCCGGCAUGGUCCCAGCCUCCGCGCUGGCGCCGGCUGGGCAACAUUCCGAGGGGACCGUCCCCUCGGUCAUGGCGAAUGGGACCCA [U23G A70C] | 0.571 |
| GGCCGGCAUGGUCCCAGCCUCCUCGCUGGCGCCGGCUGGGCUACAUUCCGAGGGGACCGUCCCCUCGGUAAUGGCGAAAGGGACCCA [A42U U79A] | 0.145 |
| GGCCGGCAUGGUCCCAGCCUCCUCGCUGGCGCCGGCUGGGCAACAUUCCGAGCGGACCGUCCCCUCGGUAAUGACGAAUGGGACCCA [G53C G74A] | 0.405 |
| GGCCGGCAUGGUCCCAGCCUCCUCGCUGGCGCCGGCUGGGCAACAUUCCGAAGGGACCGUCCCCUCGGUAAUGCCGAAUGGGACCCA [G52A G74C] | 0.133 |
| GGCCGGCAUGGUCCCAGCCUCCUCGCUGGCGCCGGCUGGGCAACAUACCGAGGGGACCGUCCCCUCGGUAAUGGCGAACGGGACCCA [U47A U79C] | 0.312 |
| GGCCGGCAUGGUCCCAGCCUCCGCGCUGGCGCCGGCUGGGCAACAUUCCGAGGGGACCGUCCCCUCGGUAAUGGCAAAUGGGACCCA [U23G G76A] | 0.895 |
| GGCCGGCAUGGUCCCAGCCCCCUCGCUGGCGCCGGCUGGGCAACAUUCCGAUGGGACCGUCCCCUCGGUAAUGGCGAAUGGGACCCA [U20C G52U] | 0.145 |
| GGCCGGCAUGGUCCCAGCCUCCUCGCUGGCGCCGGCUGGGCAACAUUCCGAGGGGACCGACCCCUCGGUAAUGGCGAAUGGGACCCC [U60A A87C] | 1 |
| GGCCGGCAUGGUCCCAGCCUCCUCGCUGGCGCCGGCUGGGCAGCAUUCCGAGGGGACCGUCCCCUCGGUAAUGGCGAAUGGGACGCA [A43G C85G] | 0.791 |
| GGCCGGUAUGGUCCCAGCCUCCUCGCUGGCGACGGCUGGGCAACAUUCCGAGGGGACCGUCCCCUCGGUAAUGGCGAAUGGGACCCA [C7U C32A] | 0.0707 |
| GGCCGGCAUGGUCCCAGCCUCCUCGCUGGCGCCGGCUGGGCAACAUUCCGAGGGGACCGUCCCCUCGGUAACGGCGGAUGGGACCCA [U72C A77G] | 0.229 |
| GGCCGGCAUGGUCCCAGCCUCCUCGCAGGCGCCGGCUGGGCAACAUUCCGAGGGGACCGUCCCCUCUGUAAUGGCGAAUGGGACCCA [U27A G67U] | 0.799 |
| GGCCGGCAUGGUCCCAGCCUCCUCGCUGGCGCCGGCUGGGCAACAUUCCAAGGUGACCGUCCCCUCGGUAAUGGCGAAUGGGACCCA [G50A G54U] | 0.852 |
| GGCCGGCAUGGUCCCAGCCUCCUCGCUGGCGCCUGCUGGGCAACAUUCUGAGGGGACCGUCCCCUCGGUAAUGGCGAAUGGGACCCA [G34U C49U] | 0.136 |
| GGCCGGCAUGGUCCCAGCCUCCUCGCUGGCGGCGGCUGGGCAACAUUCCGCGGGGACCGUCCCCUCGGUAAUGGCGAAUGGGACCCA [C32G A51C] | 0.0489 |
| GGCCGGCAUGGUCCCAGCCUUCUCGCUGGCGCCGGCUGGGCAACAUUCCGAGGGGACCGUCCCCUCGGUAAUGGCUAAUGGGACCCA [C21U G76U] | 0.542 |
| GGCCGGCAUGGUCCCAGCCUCCUCGCUGGCGCCGGCUGGGCAACAUUGCGAGGGGACCGUCCCCUCGGUAAUGGCGAAUCGGACCCA [C48G G80C] | 0.262 |
| GGCCGGCAUGGUCCCAGCCUCCUCGCUGGCGCCGGCUGGGCAACAUUCCGAGGCGACCGUCCCCUCGGUAAUGGCGAUUGGGACCCA [G54C A78U] | 0.324 |
| GGCCGGCAUGGUCCCAGCCUCCUCGCUGGCGCCGGCUGGGCAACAUACCGAGGGGACCGUCCCCUCGGUAAUGGCGAAUGGGAGCCA [U47A C84G] | 0.831 |
| GGCCGGCAUGGUCCGAGCCUCCUCGCUGCCGCCGGCUGGGCAACAUUCCGAGGGGACCGUCCCCUCGGUAAUGGCGAAUGGGACCCA [C15G G29C] | 0 |
| GCCCGGCAUGGUCCCAGCCUCCUCGCUGGCGCCGGCUGGGCAACAUUCCGAUGGGACCGUCCCCUCGGUAAUGGCGAAUGGGACCCA [G2C G52U] | 0.032 |
| GGCCGGCAUGGUCCCAGCCUCCUCGCUGGCGCCGGCUGGGCAACAUUCCUAGGGGACCGUCCCCUCGGUAAUGGCGAAUGGGAUCCA [G50U C84U] | 0.665 |

| Variant | self-cleavage |
| --- | --- |
| GGCCGGCAUGGUCCCAGCCUCCUCGAUGGCGCCGGCUGGGCAACAUUCCGAGGGGACCGUCCCCUAGGUAAUGGCGAAUGGGACCCA [C26A C66A] | 0.909 |
| GGCCGGCAUGGUCUCAGCCUCCUCGCUGGUGCCGGCUGGGCAACAUUCCGAGGGGACCGUCCCCUCGGUAAUGGCGAAUGGGACCCA [C14U C30U] | 0.489 |
| GGCCGGCAUGGUCCCAGCCUCCUCGCUGGCGCCGUCUGGGCAACAUGCCGAGGGGACCGUCCCCUCGGUAAUGGCGAAUGGGACCCA [G35U U47G] | 0.295 |
| GUCCGGCAUGGGCCCAGCCUCCUCGCUGGCGCCGGCUGGGCAACAUUCCGAGGGGACCGUCCCCUCGGUAAUGGCGAAUGGGACCCA [G2U U12G] | 0.0346 |
| GGCCGGCAUGGUCCCAGCCUCCUUGCUGGCGCCGGCUGGGCAACAUUCCGAGGGGACCGUCCCCUCGGUAAUGGCGACUGGGACCCA [C24U A78C] | 0.196 |
| GGCCGGCAUGGUCCCAGCCUCCUCGCUGGCGCCGGCUGAGCAACAUUCCGAGGGGACCGUCCCCUCGUUAAUGGCGAAUGGGACCCA [G39A G68U] | 0.554 |
| GGCCGGCAUGGUCCAAGCCUCCUCGCUGGCGCCUGCUGGGCAACAUUCCGAGGGGACCGUCCCCUCGGUAAUGGCGAAUGGGACCCA [C15A G34U] | 0 |
| GGCCGGCAUGGUCCCAGCCACCUCGCUGGCGCCGGCUGGGCAACAUUCAGAGGGGACCGUCCCCUCGGUAAUGGCGAAUGGGACCCA [U20A C49A] | 0 |
| GGCCGGCAUGGUCCCAGCCUCCUCGCUGGCGCCGGCUGGGCAACCUUGCGAGGGGACCGUCCCCUCGGUAAUGGCGAAUGGGACCCA [A45C C48G] | 0.369 |
| GGCCGGCAUGGUGCCAGCCUCCUCGCUGGCGCCGGCUGCGCAACAUUCCGAGGGGACCGUCCCCUCGGUAAUGGCGAAUGGGACCCA [C13G G39C] | 0.0462 |
| GGCCGGCAUGGUCCCAGCCUCCUCGCUGGCGCCGGCUGGGCAACAUUCCGAGGGGAACGUCCCCUCGGUAAUGGCGAAUGGGAGCCA [C57A C84G] | 0.727 |
| GGGCGGCAUGGUCCCAGCCUCCUCGCUGGCGCCGGCUGGGCAACAUUCCGAGGGGACCGCCCCCUCGGUAAUGGCGAAUGGGACCCA [C3G U60C] | 0.748 |
| GGCCGGCAUGGUCCCAGCCUCCUCGCUGGCGCCGGCUGGGCAACAUUCCGAGGGGACCGUCCCCCCGGUAAUGGCGAGUGGGACCCA [U65C A78G] | 0.731 |
| GGCUGGCAUGGUCCCAGCCUCCUCGCUGGCGCCGGCUGGGCAACGUUCCGAGGGGACCGUCCCCUCGGUAAUGGCGAAUGGGACCCA [C4U A45G] | 0.862 |
| GGCCGGCAUGGUCCCAGCCUCCUCGCUGGCGCCGGCUGGGCAACAUCACGAGGGGACCGUCCCCUCGGUAAUGGCGAAUGGGACCCA [U47C C48A] | 0.875 |
| GGCCGGCAUGGUCCCAGCCUCCUCGCUGGCGCCGGCUGGGCAACAUUCCGAGGGGACCGUCCCCUCGUUAAUGGCUAAUGGGACCCA [G68U G76U] | 1.09 |
| GGCCGGCAUGUUCCCAGCCUCCUCGCUGGCGCCGGCUGGGCAACAUUCCGAGGGGACCGUCCCCUCGGUAAUGGCGAAUCGGACCCA [G11U G80C] | 0 |
| GGCCGGCAUGGUCACAGCAUCCUCGCUGGCGCCGGCUGGGCAACAUUCCGAGGGGACCGUCCCCUCGGUAAUGGCGAAUGGGACCCA [C14A C19A] | 0.0639 |
| GGCCGGCAUGGUCCCAGCCUCCUCGCUGGCGCCGGCUGGGCAACAUUCCAAGGGGACCGUCCCCACGGUAAUGGCGAAUGGGACCCA [G50A U65A] | 1.02 |
| GGCCGGCAUGGUCCCAGCCUCCUCGCUGGCGCCGGCUGAGCAACAUUCCGAGGGGACCGUCCCCUUGGUAAUGGCGAAUGGGACCCA [G39A C66U] | 0.472 |
| GGCCGGCAUGUUCCCAGCCUCCUCGCUGGCGCCGGCAGGGCAACAUUCCGAGGGGACCGUCCCCUCGGUAAUGGCGAAUGGGACCCA [G11U U37A] | 0.124 |
| GGCAGGCAUGGUCCCAGCCUCCUUGCUGGCGCCGGCUGGGCAACAUUCCGAGGGGACCGUCCCCUCGGUAAUGGCGAAUGGGACCCA [C4A C24U] | 0 |

| Variant | self-cleavage |
| --- | --- |
| GGCCGGCAUGGUCCCAGCCUCCUCGCUGGCGCCGGCUAGGCAAAAUUCCGAGGGGACCGUCCCCUCGGUAAUGGCGAAUGGGACCCA [G38A C44A] | 0.0678 |
| GGCCGGCAUGGUCCCAGCCUCCUCGCUGGCGCCGGCUGGGCUACAUGCCGAGGGGACCGUCCCCUCGGUAAUGGCGAAUGGGACCCA [A42U U47G] | 0.615 |
| GGCCGACAUGGUCCCAGCCUCCUCGCUGGCGCCGGCUGGGCAACCUUCCGAGGGGACCGUCCCCUCGGUAAUGGCGAAUGGGACCCA [G6A A45C] | 0.0519 |
| GGCCGGCAUGGUCCCAGCCUCCUCGCUGGCGCCGGCUGGGCAACAUUCCGAGGGGACCGUCCCCUCGGUAAUGCCGAAUGGGGCCCA [G74C A83G] | 0.104 |
| GGCCGGCAUGGUCCCAGCCUCCUCGCUGGCGCCGGCUGGGUAACAUUCCGAGGGGACCGACCCCUCGGUAAUGGCGAAUGGGACCCA [C41U U60A] | 0.815 |
| GGCCGGCAUGGUCCCAUCCUCCUCGCUGGCGCCGGCUGGGCAACAUUCCGAUGGGACCGUCCCCUCGGUAAUGGCGAAUGGGACCCA [G17U G52U] | 0.517 |
| GGCCGGUAUCGUCCCAGCCUCCUCGCUGGCGCCGGCUGGGCAACAUUCCGAGGGGACCGUCCCCUCGGUAAUGGCGAAUGGGACCCA [C7U G10C] | 0.266 |
| GGCCGGCAUGGUCCCAGCCUCCACGCUGGCGGCGGCUGGGCAACAUUCCGAGGGGACCGUCCCCUCGGUAAUGGCGAAUGGGACCCA [U23A C32G] | 0.253 |
| GGCCGGCAUGGUCCCAGCCUCCUCGCUGGCGCCGGCUGGGCAACAUUCCGAGGGGACCGUCCCGUCGGUACUGGCGAAUGGGACCCA [C64G A71C] | 0.68 |
| GGCCGGCAUGGUUCCAGUCUCCUCGCUGGCGCCGGCUGGGCAACAUUCCGAGGGGACCGUCCCCUCGGUAAUGGCGAAUGGGACCCA [C13U C18U] | 0.295 |
| GGCCGGCAUGGUCCCAGCCUCCUCGCUGGCGGCGGCUGGGCAACAUUCCGAGGGGACCGUCCCCUCCGUAAUGGCGAAUGGGACCCA [C32G G67C] | 0.149 |
| GGCCGGCCUGGUCCCAGCCUCCUCGCUGGCGCCGGCUGGGCAACAUUCCGAGAGGACCGUCCCCUCGGUAAUGGCGAAUGGGACCCA [A8C G53A] | 0.846 |
| GGCCGGCAUGGUCCCGGCCUCCUCGCUGGCGCCGGCUGGGCAACAUUCCGAGGGGACCGUCCCCUCGGUAAUGGCGAAUGGAACCCA [A16G G82A] | 0.453 |
| GGCCGGCAGGGUCCCAGCCUCCUCUCUGGCGCCGGCUGGGCAACAUUCCGAGGGGACCGUCCCCUCGGUAAUGGCGAAUGGGACCCA [U9G G25U] | 0.383 |
| GGCCGGCAUGGUCCCAGCCUCCUCGCAGGCGCCGGCUGGGCAACAUUCCGAGGGGACCGUCCCCUCGGUAUUGGCGAAUGGGACCCA [U27A A71U] | 0.906 |
| GGCCGGCAUGGUCCCAGCCUCCUCGCUGGCGACGCCUGGGCAACAUUCCGAGGGGACCGUCCCCUCGGUAAUGGCGAAUGGGACCCA [C32A G35C] | 0.0405 |
| GGCCGGCAUGGUCCCAGCCUCCUCGCUGGCGCCGGCUGGGCAAUAUUCCGAGGGGACCGUCCCCUCGGUAAUGGCGAAUGGGACCCC [C44U A87C] | 0.618 |
| GGCCGGCAUGGUCCCAGCCUCCUCGCUGGCGCCGGCUGGGCAAAAUUCCGAGGGGACCGUCCCCUCGGUAGUGGCGAAUGGGACCCA [C44A A71G] | 0.427 |
| GGCGGGCAUGGUCCCAGCCUCCUCGCUGGCGCCGGCUGCGCAACAUUCCGAGGGGACCGUCCCCUCGGUAAUGGCGAAUGGGACCCA [C4G G39C] | 0.0326 |
| GGCCGGCAUGGUCCCAGCCUUCUCGCUGGCGCAGGCUGGGCAACAUUCCGAGGGGACCGUCCCCUCGGUAAUGGCGAAUGGGACCCA [C21U C33A] | 0 |

— the RNAGym collection of RNA variant scans (doi:10.7554/elife.80360)
